Experimental data: PMC4966837 (mAbs, 2015)

Molecular target: human βc receptor on cells (TF-1 cells, human neutrophils, human eosinophils) (Homo sapiens, UniProt P32927)
Assay: radioligand binding

Chain of human βc receptor on cells (TF-1 cells, human neutrophils, human eosinophils) (P32927 17-897): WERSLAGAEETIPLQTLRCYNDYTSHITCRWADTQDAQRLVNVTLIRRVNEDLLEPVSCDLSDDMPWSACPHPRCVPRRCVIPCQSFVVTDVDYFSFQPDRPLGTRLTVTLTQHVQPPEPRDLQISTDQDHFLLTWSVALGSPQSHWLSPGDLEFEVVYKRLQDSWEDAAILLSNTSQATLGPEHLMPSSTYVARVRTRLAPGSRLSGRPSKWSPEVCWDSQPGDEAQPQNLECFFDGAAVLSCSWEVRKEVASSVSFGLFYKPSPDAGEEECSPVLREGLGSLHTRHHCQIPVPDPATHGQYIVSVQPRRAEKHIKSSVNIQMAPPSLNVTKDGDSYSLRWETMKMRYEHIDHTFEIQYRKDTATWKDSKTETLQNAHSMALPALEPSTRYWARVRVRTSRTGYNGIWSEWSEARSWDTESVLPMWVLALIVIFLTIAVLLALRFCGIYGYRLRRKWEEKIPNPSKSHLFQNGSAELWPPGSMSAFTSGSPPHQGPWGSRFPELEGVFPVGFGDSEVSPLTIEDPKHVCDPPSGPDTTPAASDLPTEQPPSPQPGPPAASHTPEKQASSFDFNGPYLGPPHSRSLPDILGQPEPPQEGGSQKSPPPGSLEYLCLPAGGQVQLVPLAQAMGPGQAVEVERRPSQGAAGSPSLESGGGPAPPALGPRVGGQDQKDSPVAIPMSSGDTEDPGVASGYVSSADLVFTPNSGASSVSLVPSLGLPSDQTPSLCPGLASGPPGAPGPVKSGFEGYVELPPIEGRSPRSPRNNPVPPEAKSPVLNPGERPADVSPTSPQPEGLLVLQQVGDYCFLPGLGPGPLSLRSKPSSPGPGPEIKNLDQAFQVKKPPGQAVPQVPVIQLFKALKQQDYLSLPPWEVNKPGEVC

Kd [nM]	Binder
0.25 to 0.73	CSL311 (human IgG4-kappa monoclonal antibody) (antibody, V domains shown) VH: EVQLLESGGGLVQPGGSLRLSCAASGFTFPWYRVHWVRQAPGKGLEWVSSIRSSGGFPYYNYKVKGRFTISRDNSKNTLYLQMNSLRAEDTAVYYCARFYDSFFDIWGQGTMVTVSS VL: DIQMTQSPSSVSASVGDRVTITCRASQGISSWLAWYQQKPGKAPKLLIYAASSLQSGVPSRFSGSGSGTDFTLTISSLQPEDFATYYCQQANSFPITFGQGTRLEIK
0.38 to 0.67	CSL311 Fab fragment (Fab, V domains shown) VH: EVQLLESGGGLVQPGGSLRLSCAASGFTFPWYRVHWVRQAPGKGLEWVSSIRSSGGFPYYNYKVKGRFTISRDNSKNTLYLQMNSLRAEDTAVYYCARFYDSFFDIWGQGTMVTVSS VL: DIQMTQSPSSVSASVGDRVTITCRASQGISSWLAWYQQKPGKAPKLLIYAASSLQSGVPSRFSGSGSGTDFTLTISSLQPEDFATYYCQQANSFPITFGQGTRLEIK
